This note sets out measurements from article PMC7717172.

Usually stoichiometry N stands for a count of units in the complex or per binding partner.

This test concerns the target inactive Minerva virus protease (norovirus GII.4 NS6 protease, C139A) (norovirus GII.4 (Minerva virus)). The experiment in a line: crystal structure.

In turn, “inactive Minerva virus protease (norovirus GII.4 NS6 protease, C139A) (enzyme)” returned a stoichiometry N of 2.
